Results: IntAct's records for PubMed 26744420

B1: PAX-interacting protein 1 (Mus musculus), Q6NZQ4 (parent)
chain: MSEPAPEVPEELFREVKYYAVGDIDPQVIQLLKAGKAKEVSYNALASHIISEDGDNPEVGEAREVFDLPVVKPSWVTLSVQCGALLPVNGFSPESCQIFFGLTACLSQVSSEDRSALWALVTFHGGSCQLNLNKKCTHLIVPEPKGEKYERAVKRTSIKIVTPDWVLDCVSEKRRKDEAFYHPRLIIYEEEEEEEEEGDNEEQDSQNEGSTEKSSVASSAVASPAEQPCSPKPRAEVSKGELMFDDSSDSSPEKQERSLNWAPAEAPPLNTAQRRLPQGKGPGLINLCANVPPVPGDILPPDMRGNLMAPGQNLQNSERSEILGTWSPAVRTLRNITNNADIQQINRPSNVAHILQSLSAPTKSLEQQVARGQQGHPNASAVLFGQAKGAPETHVLQQHHPPQQPQQQHPALHLQPQIMQLQQQQQQQQQQQQQPQPYPQPPSHQFPQQVHQHQFSQQQLQFPQQPLHPQQQLHRPQQQLQPFQQQHALQQQLHQLQQQQLQHHQLAQLQQQQQQQHNLLQQQQQQQQLQRLQQQQQMQNQAAHLSQASQALQHQVLPQQPLQLSLQPPPQQQQQQQLFGHDPAVEIPEESFLLGCVFAIADYPEQMSDKQLLATWKRIIQAHGGTVDPTFTSRCTHLLCASQVSSMYTQALRERKRCVTAHWLNTVLKKKKLMPPHRALHFPVAFPPGGKPCSQHIISVTGFVDNDRDDLKLMAYLAGAKYTGYLCRSNTVLICKEPSGLKYEKAKEWRIPCVNAQWLGDILLGNFEALRQVQYSRYTAFNMPDPFVPTPHLVLGLLDAWRTPVKVTAELLMGVRLPPKLKPNEVANIQPSSKRARIEDLPPPTKKLTPELTPLVLFTGFEPVQVQQYIKKLYILGGEVAECTKKCTHLIASKVTRTVKFLTAISVVKHIVTPDWLEECFKRQTFIDEQNYILRDAEAEVLFSFSLEESLKRAHVSPLFKTKYFYITPGICPSLATMKAIVECAGGKVLAKQPSFRKLMEHKQNKSLSEIILISCENDLHLCREYFARGIDVHNAEFVLTGVLTQTLDYESYKFN

Variants of: B1
Conditions: with pgr1a_mouse Pagr1a

effect of a mutation on the interaction	Variant
disrupting interaction	W165R
